The target of data set [1] is T1, heme-regulated inhibitor (HRI) (Homo sapiens, UniProt Q9BQI3).
T1 construct: gene EIF2AK1; HRI-FL (full-length)
Briefly: γ[…] ATP filter-paper kinase assay with eIF2α peptide; supported by DSF (~[…] °C shift) and DSC stabilization. It is filed as biochemical. (In general: Differential scanning fluorimetry follows unfolding on heating by fluorescence.)

Data set [2] deals with the molecule itself. Briefly: AUC; sedimentation velocity; samples at an absorbance of 0.5 at 280 nm, 20 °C, 42,000 rpm, c(s) distribution model in SEDFIT; self-association (oligomeric state from fit MW).

T1 sequence (Q9BQI3 whole entry): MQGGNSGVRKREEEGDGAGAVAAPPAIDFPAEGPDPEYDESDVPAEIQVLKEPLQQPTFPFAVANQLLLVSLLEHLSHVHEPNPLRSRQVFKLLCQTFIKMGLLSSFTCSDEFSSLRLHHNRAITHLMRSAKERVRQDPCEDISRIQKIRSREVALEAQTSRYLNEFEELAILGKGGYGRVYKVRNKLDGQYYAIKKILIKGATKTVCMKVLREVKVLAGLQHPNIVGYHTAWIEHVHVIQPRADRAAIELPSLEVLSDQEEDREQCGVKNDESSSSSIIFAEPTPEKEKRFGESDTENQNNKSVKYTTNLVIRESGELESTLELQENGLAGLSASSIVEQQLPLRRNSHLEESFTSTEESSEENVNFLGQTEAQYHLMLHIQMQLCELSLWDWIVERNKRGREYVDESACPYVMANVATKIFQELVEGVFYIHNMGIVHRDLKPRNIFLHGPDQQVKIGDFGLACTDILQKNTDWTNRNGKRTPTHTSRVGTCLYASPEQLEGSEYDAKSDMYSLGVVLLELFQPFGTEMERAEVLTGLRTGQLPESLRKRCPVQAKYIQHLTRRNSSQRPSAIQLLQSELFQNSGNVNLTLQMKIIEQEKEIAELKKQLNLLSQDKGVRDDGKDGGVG

With `O=c1c(O)c(-c2ccc(O)c(O)c2)oc2cc(O)cc(O)c12` [quercetin], the IC50 (usually the point on the concentration scale where inhibition reaches its midpoint) in data set [1] stood at 1520 nM.

B1: HRI-ΔN-ΔpCC (Δ1-143, Δ620-630), untreated (phosphorylated as purified) (domain or fragment, human, UniProt Q9BQI3 144-619, looked up)
chain: SRIQKIRSREVALEAQTSRYLNEFEELAILGKGGYGRVYKVRNKLDGQYYAIKKILIKGATKTVCMKVLREVKVLAGLQHPNIVGYHTAWIEHVHVIQPRADRAAIELPSLEVLSDQEEDREQCGVKNDESSSSSIIFAEPTPEKEKRFGESDTENQNNKSVKYTTNLVIRESGELESTLELQENGLAGLSASSIVEQQLPLRRNSHLEESFTSTEESSEENVNFLGQTEAQYHLMLHIQMQLCELSLWDWIVERNKRGREYVDESACPYVMANVATKIFQELVEGVFYIHNMGIVHRDLKPRNIFLHGPDQQVKIGDFGLACTDILQKNTDWTNRNGKRTPTHTSRVGTCLYASPEQLEGSEYDAKSDMYSLGVVLLELFQPFGTEMERAEVLTGLRTGQLPESLRKRCPVQAKYIQHLTRRNSSQRPSAIQLLQSELFQNSGNVNLTLQMKIIEQEKEIAELKKQLNLLSQDKG
modifications: autophosphorylated as purified from E. coli (sites not given)
notes: The limits 144-619 follow from the printed deletions Δ1-143 and Δ620-630; also called His-HRI-ΔN-ΔpCC; untreated HRI-ΔN-ΔpCC
With B1, the stoichiometry N (commonly the number of molecules, sites or subunits per partner or assembly) in data set [2] was 2.

B2: HRI-ΔN-ΔpCC (Δ1-143, Δ620-630), dephosphorylated with lambda phosphatase (domain or fragment, human, UniProt Q9BQI3 144-619, looked up)
chain: SRIQKIRSREVALEAQTSRYLNEFEELAILGKGGYGRVYKVRNKLDGQYYAIKKILIKGATKTVCMKVLREVKVLAGLQHPNIVGYHTAWIEHVHVIQPRADRAAIELPSLEVLSDQEEDREQCGVKNDESSSSSIIFAEPTPEKEKRFGESDTENQNNKSVKYTTNLVIRESGELESTLELQENGLAGLSASSIVEQQLPLRRNSHLEESFTSTEESSEENVNFLGQTEAQYHLMLHIQMQLCELSLWDWIVERNKRGREYVDESACPYVMANVATKIFQELVEGVFYIHNMGIVHRDLKPRNIFLHGPDQQVKIGDFGLACTDILQKNTDWTNRNGKRTPTHTSRVGTCLYASPEQLEGSEYDAKSDMYSLGVVLLELFQPFGTEMERAEVLTGLRTGQLPESLRKRCPVQAKYIQHLTRRNSSQRPSAIQLLQSELFQNSGNVNLTLQMKIIEQEKEIAELKKQLNLLSQDKG
notes: Human HRI, UniProt Q9BQI3, residues 144-619 (Δ1-143, Δ620-630); phosphate groups removed with lambda phosphatase; The limits 144-619 follow from the printed deletions Δ1-143 and Δ620-630; also called dephosphorylated HRI-ΔN-ΔpCC; source: E. coli BL21-Rosetta(DE3), purified, incubated with lambda phosphatase, then Superdex 200
Take B2: the “stoichiometry N” value in data set [2] was 2.

These data come from publication PMC9520036, “The heme-regulated inhibitor kinase requires dimerization for heme-sensing activity” (The Journal of Biological Chemistry, 2022).
